Assay results from PMC9127220 (The Journal of Biological Chemistry, 2022).
Where two headings read alike, the source gives them in different places.

B1: MukB (natural protein, Escherichia coli, UniProt P22523 1-1486, looked up)
chain: MIERGKFRSLTLINWNGFFARTFDLDELVTTLSGGNGAGKSTTMAAFVTALIPDLTLLHFRNTTEAGATSGSRDKGLHGKLKAGVCYSMLDTINSRHQRVVVGVRLQQVAGRDRKVDIKPFAIQGLPMSVQPTQLVTETLNERQARVLPLNELKDKLEAMEGVQFKQFNSITDYHSLMFDLGIIARRLRSASDRSKFYRLIEASLYGGISSAITRSLRDYLLPENSGVRKAFQDMEAALRENRMTLEAIRVTQSDRDLFKHLISEATNYVAADYMRHANERRVHLDKALEFRRELHTSRQQLAAEQYKHVDMARELAEHNGAEGDLEADYQAASDHLNLVQTALRQQEKIERYEADLDELQIRLEEQNEVVAEAIERQQENEARAEAAELEVDELKSQLADYQQALDVQQTRAIQYNQAIAALNRAKELCHLPDLTADCAAEWLETFQAKELEATEKMLSLEQKMSMAQTAHSQFEQAYQLVVAINGPLARNEAWDVARELLREGVDQRHLAEQVQPLRMRLSELEQRLREQQEAERLLADFCKRQGKNFDIDELEALHQELEARIASLSDSVSNAREERMALRQEQEQLQSRIQSLMQRAPVWLAAQNSLNQLSEQCGEEFTSSQDVTEYLQQLLEREREAIVERDEVGARKNAVDEEIERLSQPGGSEDQRLNALAERFGGVLLSEIYDDVSLEDAPYFSALYGPSRHAIVVPDLSQVTEHLEGLTDCPEDLYLIEGDPQSFDDSVFSVDELEKAVVVKIADRQWRYSRFPEVPLFGRAARESRIESLHAEREVLSERFATLSFDVQKTQRLHQAFSRFIGSHLAVAFESDPEAEIRQLNSRRVELERALSNHENDNQQQRIQFEQAKEGVTALNRILPRLNLLADDSLADRVDEIRERLDEAQEAARFVQQFGNQLAKLEPIVSVLQSDPEQFEQLKEDYAYSQQMQRDARQQAFALTEVVQRRAHFSYSDSAEMLSGNSDLNEKLRERLEQAEAERTRAREALRGHAAQLSQYNQVLASLKSSYDTKKELLNDLQRELQDIGVRADSGAEERARIRRDELHAQLSNNRSRRNQLEKALTFCEAEMDNLTRKLRKLERDYFEMREQVVTAKAGWCAVMRMVKDNGVERRLHRRELAYLSADDLRSMSDKALGALRLAVADNEHLRDVLRMSEDPKRPERKIQFFVAVYQHLRERIRQDIIRTDDPVEAIEQMEIELSRLTEELTSREQKLAISSRSVANIIRKTIQREQNRIRMLNQGLQNVSFGQVNSVRLNVNVRETHAMLLDVLSEQHEQHQDLFNSNRLTFSEALAKLYQRLNPQIDMGQRTPQTIGEELLDYRNYLEMEVEVNRGSDGWLRAESGALSTGEAIGTGMSILVMVVQSWEDESRRLRGKDISPCRLLFLDEAARLDARSIATLFELCERLQMQLIIAAPENISPEKGTTYKLVRKVFQNTEHVHVVGLRGFAPQLPETLPGTDEAPSQAS
B2: MukF (natural protein, Escherichia coli, UniProt P60293 1-440, looked up)
chain: MSEFSQTVPELVAWARKNDFSISLPVDRLSFLLAVATLNGERLDGEMSEGELVDAFRHVSDAFEQTSETIGVRANNAINDMVRQRLLNRFTSEQAEGNAIYRLTPLGIGITDYYIRQREFSTLRLSMQLSIVAGELKRAADAAEEGGDEFHWHRNVYAPLKYSVAEIFDSIDLTQRLMDEQQQQVKDDIAQLLNKDWRAAISSCELLLSETSGTLRELQDTLEAAGDKLQANLLRIQDATMTHDDLHFVDRLVFDLQSKLDRIISWGQQSIDLWIGYDRHVHKFIRTAIDMDKNRVFAQRLRQSVQTYFDEPWALTYANADRLLDMRDEEMALRDEEVTGELPEDLEYEEFNEIREQLAAIIEEQLAVYKTRQVPLDLGLVVREYLSQYPRARHFDVARIVIDQAVRLGVAQADFTGLPAKWQPINDYGAKVQAHVIDKY
B3: ParC subunit of topoisomerase IV (natural protein, Escherichia coli, UniProt P0AFI2 1-752, looked up)
chain: MSDMAERLALHEFTENAYLNYSMYVIMDRALPFIGDGLKPVQRRIVYAMSELGLNASAKFKKSARTVGDVLGKYHPHGDSACYEAMVLMAQPFSYRYPLVDGQGNWGAPDDPKSFAAMRYTESRLSKYSELLLSELGQGTADWVPNFDGTLQEPKMLPARLPNILLNGTTGIAVGMATDIPPHNLREVAQAAIALIDQPKTTLDQLLDIVQGPDYPTEAEIITSRAEIRKIYENGRGSVRMRAVWKKEDGAVVISALPHQVSGARVLEQIAAQMRNKKLPMVDDLRDESDHENPTRLVIVPRSNRVDMDQVMNHLFATTDLEKSYRINLNMIGLDGRPAVKNLLEILSEWLVFRRDTVRRRLNYRLEKVLKRLHILEGLLVAFLNIDEVIEIIRNEDEPKPALMSRFGLTETQAEAILELKLRHLAKLEEMKIRGEQSELEKERDQLQGILASERKMNNLLKKELQADAQAYGDDRRSPLQEREEAKAMSEHDMLPSEPVTIVLSQMGWVRSAKGHDIDAPGLNYKAGDSFKAAVKGKSNQPVVFVDSTGRSYAIDPITLPSARGQGEPLTGKLTLPPGATVDHMLMESDDQKLLMASDAGYGFVCTFNDLVARNRAGKALITLPENAHVMPPVVIEDASDMLLAITQAGRMLMFPVSDLPQLSKGKGNKIINIPSAEAARGEDGLAQLYVLPPQSTLTIHVGKRKIKLRPEELQKVTGERGRRGTLMRGLQRIDRVEIDSPRRASSGDSEE
B4: acyl carrier protein (AcpP) (natural protein, E. coli (endogenous in BL21(DE3)), UniProt P0A6A8 1-78, looked up)
chain: MSTIEERVKKIIGEQLGVKQEEVTNNASFVEDLGADSLDTVELVMALEEEFDTEIPDEEAEKITTVQAAIDYINGHQA

What was measured:
cross-linking = target: the molecule itself; assay: cross-linking
MukB [1] = target: B1; assay: cross-linking
MukB [2] = target: B1; assay: cross-linking; remark: listed apart in the source
MukB [3] = target: B1; assay: co-purification

Binder: B1
binding result (cross-linking): binds

Binder: B2
binding result (MukB [1]): binds

Binder: B3
binding result (MukB [2]): binds

Binder: B4
stoichiometry N (MukB [3]): 1 AcpP:MukB
